Test results reported in FireProtDB (doi:10.1021/bi034798l).

Settings: Homo sapiens; pH 7.4; Thermal; CD; Phosphate buffer saline; whole UniProt chain shown

B1: SH2 domain-containing protein 1A wild type, O60880 (protein)
chain: MDAVAVYHGKISRETGEKLLLATGLDGSYLLRDSESVPGVYCLCVLYHGYIYTYRVSQTETGSWSAETAPGVHKRYFRKIKNLISAFQKPDQGIVIPLQYPVEKKSSARSTQGTTGIREDPDVCLKAP
For B1, which Tm is on record?
The Tm was 57.8 °C.
